In patent publication US20250262210A1 (TRUSTEES OF COLUMBIA UNIVERSITY IN THE CITY OF NEW YORK, published 2025):

Columns and labels:
Assay in all cases: IP/MS, LZTR1 wild type-FLAG, U87
HELZ = HELZ (human, UniProt P42694 1-1942, limits assumed)
Outline: (§1)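 Gel slices were reduced with 5 mM DTT, alkylated with 11 mM IAA and digested overnight at 37° C. with trypsin. Peptides were analysed on an Orbitrap Fusion Tribrid by LC-MS/MS.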

SBNO2 = molecular target: T1, SBNO2 (human, UniProt Q9Y2G9 1-1366, limits assumed)
T1 sequence (looked up): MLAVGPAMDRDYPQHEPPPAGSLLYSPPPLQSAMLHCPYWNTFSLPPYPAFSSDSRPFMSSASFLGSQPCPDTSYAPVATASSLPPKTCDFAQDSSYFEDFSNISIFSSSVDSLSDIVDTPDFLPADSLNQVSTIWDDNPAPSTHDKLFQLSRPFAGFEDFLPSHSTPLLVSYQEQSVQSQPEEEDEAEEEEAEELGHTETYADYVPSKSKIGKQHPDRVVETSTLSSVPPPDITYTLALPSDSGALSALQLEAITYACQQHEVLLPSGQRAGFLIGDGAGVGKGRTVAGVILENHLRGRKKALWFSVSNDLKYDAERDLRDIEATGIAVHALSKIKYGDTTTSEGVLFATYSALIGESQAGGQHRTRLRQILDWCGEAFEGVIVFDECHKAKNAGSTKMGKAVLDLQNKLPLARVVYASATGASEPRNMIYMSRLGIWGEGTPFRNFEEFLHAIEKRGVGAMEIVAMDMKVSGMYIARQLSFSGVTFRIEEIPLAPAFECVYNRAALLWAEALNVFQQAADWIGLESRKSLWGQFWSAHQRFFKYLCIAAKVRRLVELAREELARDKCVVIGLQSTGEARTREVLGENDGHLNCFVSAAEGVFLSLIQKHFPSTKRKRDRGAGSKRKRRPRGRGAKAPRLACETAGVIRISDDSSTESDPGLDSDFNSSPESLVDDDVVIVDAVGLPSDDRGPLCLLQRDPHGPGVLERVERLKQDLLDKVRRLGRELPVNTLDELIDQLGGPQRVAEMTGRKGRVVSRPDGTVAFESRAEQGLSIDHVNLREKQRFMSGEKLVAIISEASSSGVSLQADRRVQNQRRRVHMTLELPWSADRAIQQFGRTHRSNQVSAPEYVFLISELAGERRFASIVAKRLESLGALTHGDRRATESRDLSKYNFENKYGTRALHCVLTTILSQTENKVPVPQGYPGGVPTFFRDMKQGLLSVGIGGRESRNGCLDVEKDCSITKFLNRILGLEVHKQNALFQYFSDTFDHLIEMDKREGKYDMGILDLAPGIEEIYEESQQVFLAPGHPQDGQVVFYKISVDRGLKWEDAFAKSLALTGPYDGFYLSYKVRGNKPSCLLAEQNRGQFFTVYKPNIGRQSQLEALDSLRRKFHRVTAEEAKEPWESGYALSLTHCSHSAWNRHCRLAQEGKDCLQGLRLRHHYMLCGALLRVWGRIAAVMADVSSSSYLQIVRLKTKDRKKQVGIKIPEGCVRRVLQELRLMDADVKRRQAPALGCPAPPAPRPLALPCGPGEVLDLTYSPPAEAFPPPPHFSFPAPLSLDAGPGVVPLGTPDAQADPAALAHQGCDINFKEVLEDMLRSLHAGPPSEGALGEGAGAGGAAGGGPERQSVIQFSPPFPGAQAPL
Outline: as §1

DMXL2 = DMXL2 (human, UniProt Q8TDJ6 1-3036, limits assumed)
DMXL2, sequence (Q8TDJ6 whole entry): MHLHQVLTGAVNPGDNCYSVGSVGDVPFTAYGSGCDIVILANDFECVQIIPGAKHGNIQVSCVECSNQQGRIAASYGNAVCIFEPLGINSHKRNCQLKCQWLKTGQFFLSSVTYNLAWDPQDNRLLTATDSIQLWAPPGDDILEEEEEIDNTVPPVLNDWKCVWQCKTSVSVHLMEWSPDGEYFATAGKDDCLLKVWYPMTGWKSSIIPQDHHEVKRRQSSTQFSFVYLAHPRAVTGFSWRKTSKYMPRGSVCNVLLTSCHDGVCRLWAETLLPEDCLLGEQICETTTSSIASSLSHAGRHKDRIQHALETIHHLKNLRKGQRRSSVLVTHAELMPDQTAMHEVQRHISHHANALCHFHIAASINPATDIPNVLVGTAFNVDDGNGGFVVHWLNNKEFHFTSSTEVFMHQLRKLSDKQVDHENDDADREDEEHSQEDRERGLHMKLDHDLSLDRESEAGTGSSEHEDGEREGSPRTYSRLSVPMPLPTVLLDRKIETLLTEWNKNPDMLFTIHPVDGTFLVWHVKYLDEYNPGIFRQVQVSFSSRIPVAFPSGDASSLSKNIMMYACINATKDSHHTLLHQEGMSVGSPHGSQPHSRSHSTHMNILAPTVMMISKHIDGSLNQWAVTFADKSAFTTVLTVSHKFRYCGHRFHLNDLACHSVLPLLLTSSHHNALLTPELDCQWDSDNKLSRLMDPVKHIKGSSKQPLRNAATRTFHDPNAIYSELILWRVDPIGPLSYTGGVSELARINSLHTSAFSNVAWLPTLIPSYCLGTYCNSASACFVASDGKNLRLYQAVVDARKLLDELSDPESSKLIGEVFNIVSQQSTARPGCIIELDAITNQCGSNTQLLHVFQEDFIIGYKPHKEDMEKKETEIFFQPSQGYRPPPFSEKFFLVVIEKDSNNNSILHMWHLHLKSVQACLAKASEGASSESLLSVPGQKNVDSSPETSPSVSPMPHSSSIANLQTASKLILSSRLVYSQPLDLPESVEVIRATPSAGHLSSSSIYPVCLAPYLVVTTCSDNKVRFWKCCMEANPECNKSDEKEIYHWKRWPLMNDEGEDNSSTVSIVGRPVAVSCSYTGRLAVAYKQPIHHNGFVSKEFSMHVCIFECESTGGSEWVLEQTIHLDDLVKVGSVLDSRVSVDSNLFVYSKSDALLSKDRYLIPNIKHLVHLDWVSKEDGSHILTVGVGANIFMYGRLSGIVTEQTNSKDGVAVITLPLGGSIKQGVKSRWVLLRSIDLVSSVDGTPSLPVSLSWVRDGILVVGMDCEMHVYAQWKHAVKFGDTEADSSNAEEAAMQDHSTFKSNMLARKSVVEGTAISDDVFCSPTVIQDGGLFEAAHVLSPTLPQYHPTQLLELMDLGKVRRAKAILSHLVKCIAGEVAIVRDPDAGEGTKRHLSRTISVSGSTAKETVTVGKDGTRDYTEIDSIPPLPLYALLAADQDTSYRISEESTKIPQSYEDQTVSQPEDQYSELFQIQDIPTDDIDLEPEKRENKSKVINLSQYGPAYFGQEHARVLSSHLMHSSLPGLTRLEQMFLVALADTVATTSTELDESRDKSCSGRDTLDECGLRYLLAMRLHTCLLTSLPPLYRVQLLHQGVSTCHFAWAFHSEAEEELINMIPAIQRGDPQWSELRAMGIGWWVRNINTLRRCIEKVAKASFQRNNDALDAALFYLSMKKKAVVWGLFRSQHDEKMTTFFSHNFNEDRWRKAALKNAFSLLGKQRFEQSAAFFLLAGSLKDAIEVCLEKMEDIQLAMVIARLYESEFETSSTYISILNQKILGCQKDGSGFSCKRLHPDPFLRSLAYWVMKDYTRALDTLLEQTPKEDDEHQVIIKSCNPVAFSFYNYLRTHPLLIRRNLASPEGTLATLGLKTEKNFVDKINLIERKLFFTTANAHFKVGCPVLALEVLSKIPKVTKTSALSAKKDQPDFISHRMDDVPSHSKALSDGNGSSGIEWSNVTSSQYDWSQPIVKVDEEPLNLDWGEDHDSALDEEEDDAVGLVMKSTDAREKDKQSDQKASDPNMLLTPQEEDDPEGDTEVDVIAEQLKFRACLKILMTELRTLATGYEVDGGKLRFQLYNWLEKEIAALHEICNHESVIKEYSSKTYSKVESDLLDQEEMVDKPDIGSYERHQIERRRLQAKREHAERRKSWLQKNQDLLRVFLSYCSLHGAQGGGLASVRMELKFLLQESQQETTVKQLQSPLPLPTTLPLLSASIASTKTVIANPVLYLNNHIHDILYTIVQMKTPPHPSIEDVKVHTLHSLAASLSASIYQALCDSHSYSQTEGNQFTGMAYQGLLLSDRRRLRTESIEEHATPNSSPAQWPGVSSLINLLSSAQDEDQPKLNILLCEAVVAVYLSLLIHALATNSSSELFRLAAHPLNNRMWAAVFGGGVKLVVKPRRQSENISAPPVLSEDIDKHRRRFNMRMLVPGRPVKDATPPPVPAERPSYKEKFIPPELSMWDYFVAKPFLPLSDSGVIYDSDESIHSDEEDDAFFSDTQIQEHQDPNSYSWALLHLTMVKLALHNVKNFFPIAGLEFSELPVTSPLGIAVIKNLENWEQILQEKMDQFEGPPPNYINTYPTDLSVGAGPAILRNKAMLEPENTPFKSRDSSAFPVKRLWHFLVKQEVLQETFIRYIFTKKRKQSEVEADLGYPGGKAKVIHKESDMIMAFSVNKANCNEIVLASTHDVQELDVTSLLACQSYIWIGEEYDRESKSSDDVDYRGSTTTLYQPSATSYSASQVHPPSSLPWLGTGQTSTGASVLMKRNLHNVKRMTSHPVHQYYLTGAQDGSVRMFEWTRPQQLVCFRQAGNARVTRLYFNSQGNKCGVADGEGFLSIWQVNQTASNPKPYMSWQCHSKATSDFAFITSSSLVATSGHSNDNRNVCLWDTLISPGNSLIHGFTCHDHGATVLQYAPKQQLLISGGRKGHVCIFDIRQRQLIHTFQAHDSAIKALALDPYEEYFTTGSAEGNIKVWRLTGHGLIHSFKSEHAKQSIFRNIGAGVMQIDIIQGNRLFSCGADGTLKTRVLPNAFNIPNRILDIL
Outline: as §1

HELZ, sequence (P42694 whole entry, the tested form may be a part): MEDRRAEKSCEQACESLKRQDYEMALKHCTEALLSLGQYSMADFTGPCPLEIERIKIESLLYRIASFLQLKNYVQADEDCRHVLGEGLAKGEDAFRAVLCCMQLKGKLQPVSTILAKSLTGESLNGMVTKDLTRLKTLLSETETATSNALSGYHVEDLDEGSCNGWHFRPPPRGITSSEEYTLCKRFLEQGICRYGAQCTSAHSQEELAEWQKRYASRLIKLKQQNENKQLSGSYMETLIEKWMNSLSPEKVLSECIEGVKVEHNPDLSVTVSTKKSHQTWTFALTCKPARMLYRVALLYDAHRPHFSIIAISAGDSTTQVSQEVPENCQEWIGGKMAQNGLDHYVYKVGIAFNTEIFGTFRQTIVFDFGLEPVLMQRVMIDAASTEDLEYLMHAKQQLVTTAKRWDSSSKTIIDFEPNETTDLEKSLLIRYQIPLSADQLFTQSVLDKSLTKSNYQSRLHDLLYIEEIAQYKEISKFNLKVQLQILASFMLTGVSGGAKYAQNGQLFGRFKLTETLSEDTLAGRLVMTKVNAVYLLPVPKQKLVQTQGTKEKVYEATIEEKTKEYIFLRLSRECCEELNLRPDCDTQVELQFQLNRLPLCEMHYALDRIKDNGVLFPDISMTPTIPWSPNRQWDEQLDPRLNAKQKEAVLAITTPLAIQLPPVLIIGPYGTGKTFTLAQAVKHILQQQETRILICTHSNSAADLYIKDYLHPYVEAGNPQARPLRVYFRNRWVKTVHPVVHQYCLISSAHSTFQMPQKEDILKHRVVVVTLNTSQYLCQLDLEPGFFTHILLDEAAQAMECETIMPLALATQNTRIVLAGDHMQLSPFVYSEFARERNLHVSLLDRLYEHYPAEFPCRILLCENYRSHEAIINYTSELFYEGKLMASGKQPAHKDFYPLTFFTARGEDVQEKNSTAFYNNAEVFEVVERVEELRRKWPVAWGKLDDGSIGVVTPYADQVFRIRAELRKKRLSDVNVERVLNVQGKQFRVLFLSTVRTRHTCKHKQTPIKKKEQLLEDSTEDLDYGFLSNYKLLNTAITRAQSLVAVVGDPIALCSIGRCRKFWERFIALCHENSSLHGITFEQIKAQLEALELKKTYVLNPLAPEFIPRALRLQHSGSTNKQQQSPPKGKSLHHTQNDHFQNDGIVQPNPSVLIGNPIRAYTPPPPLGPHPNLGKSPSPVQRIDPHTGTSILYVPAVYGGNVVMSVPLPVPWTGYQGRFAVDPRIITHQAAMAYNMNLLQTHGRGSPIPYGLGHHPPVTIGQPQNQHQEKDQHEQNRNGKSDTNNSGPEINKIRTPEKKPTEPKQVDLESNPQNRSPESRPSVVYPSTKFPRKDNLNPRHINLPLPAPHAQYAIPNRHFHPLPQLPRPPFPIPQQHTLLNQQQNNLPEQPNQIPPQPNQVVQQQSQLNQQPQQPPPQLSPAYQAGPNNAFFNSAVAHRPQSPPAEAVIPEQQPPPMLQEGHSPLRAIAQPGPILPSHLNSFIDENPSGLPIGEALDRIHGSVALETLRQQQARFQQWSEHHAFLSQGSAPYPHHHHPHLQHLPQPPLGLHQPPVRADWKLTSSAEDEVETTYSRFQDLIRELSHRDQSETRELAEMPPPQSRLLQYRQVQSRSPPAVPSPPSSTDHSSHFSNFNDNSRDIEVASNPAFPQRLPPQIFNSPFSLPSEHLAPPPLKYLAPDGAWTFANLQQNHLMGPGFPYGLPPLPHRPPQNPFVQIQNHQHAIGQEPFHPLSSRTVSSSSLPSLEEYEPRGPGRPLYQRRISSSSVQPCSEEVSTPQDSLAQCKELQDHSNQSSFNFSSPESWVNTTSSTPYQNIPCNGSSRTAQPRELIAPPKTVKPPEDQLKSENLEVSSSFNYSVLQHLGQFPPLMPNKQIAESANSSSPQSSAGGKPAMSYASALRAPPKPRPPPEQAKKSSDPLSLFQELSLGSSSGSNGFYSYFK

binding result (HELZ): binds | binding result (SBNO2): binds | binding result (DMXL2): binds
B1: LZTR1-FLAG (other, human, UniProt Q8N653 1-840, looked up)
chain: MAGPGSTGGQIGAAALAGGARSKVAPSVDFDHSCSDSVEYLTLNFGPFETVHRWRRLPPCDEFVGARRSKHTVVAYKDAIYVFGGDNGKTMLNDLLRFDVKDCSWCRAFTTGTPPAPRYHHSAVVYGSSMFVFGGYTGDIYSNSNLKNKNDLFEYKFATGQWTEWKIEGRLPVARSAHGATVYSDKLWIFAGYDGNARLNDMWTIGLQDRELTCWEEVAQSGEIPPSCCNFPVAVCRDKMFVFSGQSGAKITNNLFQFEFKDKTWTRIPTEHLLRGSPPPPQRRYGHTMVAFDRHLYVFGGAADNTLPNELHCYDVDFQTWEVVQPSSDSEVGGAEVPERACASEEVPTLTYEERVGFKKSRDVFGLDFGTTSAKQPTQPASELPSGRLFHAAAVISDAMYIFGGTVDNNIRSGEMYRFQFSCYPKCTLHEDYGRLWESRQFCDVEFVLGEKEECVQGHVAIVTARSRWLRRKITQARERLAQKLEQEAAPVPREAPGVAAGGARPPLLHVAIREAEARPFEVLMQFLYTDKIKYPRKGHVEDVLLIMDVYKLALSFQLCRLEQLCRQYIEASVDLQNVLVVCESAARLQLSQLKEHCLNFVVKESHFNQVIMMKEFERLSSPLIVEIVRRKQQPPPRTPLDQPVDIGTSLIQDMKAYLEGAGAEFCDITLLLDGHPRPAHKAILAARSSYFEAMFRSFMPEDGQVNISIGEMVPSRQAFESMLRYIYYGEVNMPPEDSLYLFAAPYYYGFYNNRLQAYCKQNLEMNVTVQNVLQILEAADKTQALDMKRHCLHIIVHQFTKVSKLPTLRSLSQQLLLDIIDSLASHISDKQCAELGADI
notes: Expressed in HEK 293T, HeLa or U87 cells; used as cell lysate; also called LZTR1 wild type-FLAG; LZTR1 WT; not shown: FLAG tag at the C-terminus
